Laboratory results: US20260008847A1 (ELPISCIENCE SUZHOU BIOPHARMA, published 2026)
Where two headings read alike, the source gives them in different places. Each block holds one binder with its values, some of them ahead of it.

How the values were obtained:
[1] = biological target: T1, Human LILRB2 stably expressed on EL4 cells (EL4/LILRB2) (human, UniProt Q8N423 22-597); assay: Competitive FACS: EL4/LILRB2 cells preincubated with 10 ug/mL antibody, then HLA-G complex tetramer added; inhibition of the ligand's binding to the cells [panel HLA-G]
T1 construct: also called EL4-LILRB2 cells; cell membrane human LILRB2
T1 sequence (Q8N423 22-597 limits assumed): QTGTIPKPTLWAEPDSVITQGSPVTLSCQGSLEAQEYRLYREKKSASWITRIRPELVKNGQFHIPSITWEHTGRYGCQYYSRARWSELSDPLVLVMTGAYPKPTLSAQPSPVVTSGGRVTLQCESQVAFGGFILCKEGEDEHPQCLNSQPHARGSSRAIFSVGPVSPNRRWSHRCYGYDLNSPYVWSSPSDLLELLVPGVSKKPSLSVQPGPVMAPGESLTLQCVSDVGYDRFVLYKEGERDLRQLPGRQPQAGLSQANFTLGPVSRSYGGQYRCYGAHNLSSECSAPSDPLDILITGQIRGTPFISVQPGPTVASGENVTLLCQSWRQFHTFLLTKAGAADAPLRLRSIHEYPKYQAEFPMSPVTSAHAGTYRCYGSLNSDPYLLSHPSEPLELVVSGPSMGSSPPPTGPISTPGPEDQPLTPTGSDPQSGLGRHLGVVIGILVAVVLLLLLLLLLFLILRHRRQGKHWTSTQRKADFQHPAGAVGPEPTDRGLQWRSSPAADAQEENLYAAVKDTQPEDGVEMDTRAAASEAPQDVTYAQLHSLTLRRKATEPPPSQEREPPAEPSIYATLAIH
Description: (§1) The blocking activities were determined by quantitating the blockade of the ligands binding to EL4/LILRB2 cells.

[2] = biological target: T1, Human LILRB2 stably expressed on EL4 …; assay: Competitive FACS: EL4/LILRB2 cells preincubated with 10 ug/mL antibody, then HLA-A2 complex added; inhibition of the ligand's binding to the cells [panel HLA-A2]
Description: as §1

[3] = biological target: T2, 6×His-tagged human LILRB2 ECD recombinant protein (human, UniProt Q8N423 22-458, limits assumed); assay: Bio-Layer Interferometry (Octet), 1:1 model, human LILRB2 ECD
T2 construct: Bought protein; not shown: 6×His-tag
T2 sequence (Q8N423 22-458 limits assumed): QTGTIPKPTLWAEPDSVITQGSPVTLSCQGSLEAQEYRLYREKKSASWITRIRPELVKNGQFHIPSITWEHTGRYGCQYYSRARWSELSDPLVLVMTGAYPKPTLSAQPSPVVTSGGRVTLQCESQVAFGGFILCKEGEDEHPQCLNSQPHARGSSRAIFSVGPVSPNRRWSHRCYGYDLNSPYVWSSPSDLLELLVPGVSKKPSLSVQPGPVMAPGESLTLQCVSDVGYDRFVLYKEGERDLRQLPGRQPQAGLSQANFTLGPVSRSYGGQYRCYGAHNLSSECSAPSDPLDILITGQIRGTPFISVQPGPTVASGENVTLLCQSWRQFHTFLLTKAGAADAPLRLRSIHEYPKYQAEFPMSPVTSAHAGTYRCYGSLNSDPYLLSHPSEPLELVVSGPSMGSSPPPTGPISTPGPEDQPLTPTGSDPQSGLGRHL

[4] = biological target: T1, Human LILRB2 stably expressed on EL4 …; assay: Competitive FACS: EL4/LILRB2 cells preincubated with 10 ug/mL antibody, then ANGPTL1 added; inhibition of the ligand's binding to the cells [panel ANGPTL1]
Description: as §1

[5] = biological target: T3, Human LILRA4 ECD recombinant protein with 6×His-tag (human, UniProt P59901 24-446); assay: ELISA: plate coated with LILRA4 ECD recombinant protein, antibody at 0.5 ug/mL (method of example 3.2.1); mean OD450 printed over the bar [continued) D]
T3 construct: range 1-446; Bought protein; not shown: 6×His-tag
T3 sequence (P59901 24-446 limits assumed): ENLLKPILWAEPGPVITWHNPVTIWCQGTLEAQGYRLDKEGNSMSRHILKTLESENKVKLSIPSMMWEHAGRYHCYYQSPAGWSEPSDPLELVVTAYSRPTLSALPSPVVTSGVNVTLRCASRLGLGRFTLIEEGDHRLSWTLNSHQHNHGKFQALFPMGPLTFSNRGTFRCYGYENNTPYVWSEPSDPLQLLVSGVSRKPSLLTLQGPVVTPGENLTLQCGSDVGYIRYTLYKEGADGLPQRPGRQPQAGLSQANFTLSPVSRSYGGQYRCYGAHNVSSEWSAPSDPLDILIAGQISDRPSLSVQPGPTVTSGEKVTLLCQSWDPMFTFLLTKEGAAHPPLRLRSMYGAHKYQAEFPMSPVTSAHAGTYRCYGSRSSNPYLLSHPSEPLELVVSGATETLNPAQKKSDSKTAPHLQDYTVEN

[6] = biological target: T2, 6×His-tagged human LILRB2 ECD …; assay: Octet tandem binning on captured 6×His LILRB2 ECD; competitor (Ab1) 1E1
Description: Briefly, the HIS1K sensors were hydrolyzed for 10 minutes followed by capture of 6×His-tagged human LILRB2 ECD recombinant protein to 0.3 nm. The LILRB2 captured sensors were then exposed to Ab1 and Ab2 in tandem or Ab2 directly. The binding signals of Ab2 to LILRB2 under different conditions were detected respectively. Finally, the relative binding signals of Ab2 in tandem were calculated by normalization. High relative binding signals represent low competition between Ab2 and Ab1 for binding antigen. Likewise, low relative association signals represent high competition between Ab2 and Ab1.

[7] = biological target: T4, Human LILRA5 ECD recombinant protein with 6×His-tag (human, UniProt A6NI73 42-268); assay: ELISA: plate coated with LILRA5 ECD recombinant protein, antibody at 0.5 ug/mL (method of example 3.2.1); mean OD450 printed over the bar [continued) E]
T4 construct: range 1-268; Bought protein; not shown: 6×His-tag
T4 sequence (A6NI73 42-268 limits assumed, form in doubt): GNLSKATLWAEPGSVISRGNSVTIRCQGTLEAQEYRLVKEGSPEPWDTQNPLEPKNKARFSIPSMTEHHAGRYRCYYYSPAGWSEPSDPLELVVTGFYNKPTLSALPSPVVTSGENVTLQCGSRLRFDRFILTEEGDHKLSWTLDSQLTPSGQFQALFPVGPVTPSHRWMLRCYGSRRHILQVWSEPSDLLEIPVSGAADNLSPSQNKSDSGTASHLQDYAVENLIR

[8] = biological target: T5, Cell membrane human LILRB2 on human primary monocytes from healthy donors (human, UniProt Q8N423 22-597); assay: FACS on human primary monocytes, Donor #6004
T5 construct: whole, on cells; Endogenous receptor on donor cells; the donors' alleles are not known; Also used as the target in the functional assays on PBMCs, monocytes, macrophages and dendritic cells; also called membrane LILRB2; LILRB2 on human primary monocytes, PBMCs, monocyte derived macrophages and dendritic cells
T5 sequence (Q8N423 22-597): as the sequence (Q8N423 22-597 limits assumed) above

[9] = biological target: T1, Human LILRB2 stably expressed on EL4 …; assay: Competitive FACS: EL4/LILRB2 cells preincubated with 10 ug/mL antibody, then ANGPTL7 added; inhibition of the ligand's binding to the cells [panel ANGPTL7]
Description: as §1

[10] = biological target: T5, Cell membrane human LILRB2 on human …; assay: FACS on human primary monocytes, Donor #1045
[11] = biological target: T1, Human LILRB2 stably expressed on EL4 …; assay: competitive FACS, blockade of HLA-G binding to LILRB2 on cells
Description: as §1

[12] = biological target: T2, 6×His-tagged human LILRB2 ECD …; assay: Octet, 1:1 model; column printed as 'ka (1/Ms)', heads of c4 and c5 are swapped
[13] = biological target: T1, Human LILRB2 stably expressed on EL4 …; assay: FACS on EL4/LILRB2 cells
[14] = biological target: T1, Human LILRB2 stably expressed on EL4 …; assay: FACS on EL4/LILRB2 cells; remark: listed apart in the source
[15] = biological target: T1, Human LILRB2 stably expressed on EL4 …; assay: competitive FACS on EL4/LILRB2 cells, blockade of HLA-A2 binding
Description: as §1

[16] = biological target: T5, Cell membrane human LILRB2 on human …; assay: cell-based or functional assay

Inhibition (%) [1]: 100%
Inhibition (%) [2]: 99%
Kd [3]: 8.07 nM
koff [3]: 0.00204 s⁻¹
kon [3]: 253000 M⁻¹ s⁻¹
Inhibition (%) [4]: 70%
OD450 [5]: 0.12
relative binding signal of Ab2 in tandem [6]: 3%
OD450 [7]: 0.07
EC50 [8]: 0.91 nM
Inhibition (%) [9]: 96%
EC50 [10]: 0.84 nM
B1: 1E1 (antibody, V domains shown)
VH: QVQLQQWGAGLLKPSETLSLTCAVYGGSFSGYYWSWIRQPPGKGLEWIGEINHSGSTNYNPSLKSRVTISVDTSKNQFSLKLSSVTAADTAVYYCARLPTRWVTTRYFDLWGRGTLVTVSS
VL: QSVLTQPPSVSGAPGQRVTISCTGSSSNIGAGYDVHWYQQLPGTAPKLLIYGNSNRPSGVPDRFSVSKSGASASLAITGLQAEDEADYYCQSFDNSLSAYVFGGGTQLTVL
notes: Human IgG4 monoclonal antibody with S228P in the constant region, made according to US 2018/0298096 A1; also called benchmark antibody 1E1

Inhibition (%) [1]: 100%
Inhibition (%) [2]: 100%
IC50 [11]: 0.07 nM
TOP Blocking (%) [11]: 100%
Kd [3]: 2.14 nM
koff [3]: 0.00178 s⁻¹
kon [3]: 830000 M⁻¹ s⁻¹
Inhibition (%) [4]: 70%
OD450 [5]: 0.17
relative binding signal of Ab2 in tandem [6]: 32%
OD450 [7]: 0.09
Inhibition (%) [9]: 97%
B2: J-19 (antibody, V domains shown)
VH: QVTLKESGPGILQPSHTLSLTCSFSGFSLNTYAMGVSWIRQPSGKGLEWLASIWWNGNKYNNPSLKSRLTVSKDTSNNQAFLKVTSVDTADTATYYCAHSRIIRFTDYVMDAWGQGASVTVSS
VL: DIQMTQSPASLSTFLGEPVTIECRASEDIYNDLAWYQQKPGKSPQLLIYNANSLHTGVPSRFSGSGSGTQYSLKINSLQSEDVASYFCQQYYDYPLTFGSGTKLEIK
notes: Human IgG4 monoclonal antibody with S228P in the constant region, made according to WO 2019/126514 A2; also called benchmark antibody J-19

Inhibition (%) [1]: 100%
Inhibition (%) [2]: 100%
koff [12]: 0.00119 s⁻¹
EC50 [13]: 0.45 nM
TOP MFI [13]: 45300 MFI
IC50 [11]: 0.11 nM
TOP Blocking (%) [11]: 100%
Kd [3]: 0.74 nM
koff [3]: 0.000557 s⁻¹
kon [3]: 756000 M⁻¹ s⁻¹
Inhibition (%) [4]: 71%
EC50 [14]: 0.73 nM
OD450 [5]: 0.13
IC50 [15]: 0.48 nM
relative binding signal of Ab2 in tandem [6]: 108%
OD450 [7]: 0.08
EC50 [8]: 0.29 nM
Inhibition (%) [9]: 89%
EC50 [10]: 0.32 nM
Relative cytokine level, CCL2/JE/MCP-1 (DC differentiation assay, Soluble antibody, Luminex) [16]: 2.36 fold of hIgG4 iso
Relative cytokine level, CCL3/MIP-1 alpha (DC differentiation assay, Pre-coat antibody, Luminex) [16]: > 5 fold of hIgG4 iso
Relative cytokine level, CCL3/MIP-1 alpha (DC differentiation assay, Soluble antibody, Luminex) [16]: 5.79 fold of hIgG4 iso
Relative cytokine level, CCL20/MIP-3 alpha (DC differentiation assay, Pre-coat antibody, Luminex) [16]: 1.75 fold of hIgG4 iso
Relative cytokine level, CCL20/MIP-3 alpha (DC differentiation assay, Soluble antibody, Luminex) [16]: 1.88 fold of hIgG4 iso
Relative cytokine level, CCL22/MDC (DC differentiation assay, Pre-coat antibody, Luminex) [16]: 2.61 fold of hIgG4 iso
Relative cytokine level, CCL22/MDC (DC differentiation assay, Soluble antibody, Luminex) [16]: 2.03 fold of hIgG4 iso
Relative cytokine level, CCL23/MPIF-1 (DC differentiation assay, Pre-coat antibody, Luminex) [16]: 0.48 fold of hIgG4 iso
Relative cytokine level, CCL23/MPIF-1 (DC differentiation assay, Soluble antibody, Luminex) [16]: 0.73 fold of hIgG4 iso
Relative cytokine level, IFN-beta (DC differentiation assay, Pre-coat antibody, Luminex) [16]: 3.39 fold of hIgG4 iso
Relative cytokine level, IFN-beta (DC differentiation assay, Soluble antibody, Luminex) [16]: 7.24 fold of hIgG4 iso
Relative cytokine level, IL6 (DC differentiation assay, Soluble antibody, Luminex) [16]: 1.93 fold of hIgG4 iso
Relative cytokine level, IL-1 alpha/IL-1F1 (DC differentiation assay, Pre-coat antibody, Luminex) [16]: 1.71 fold of hIgG4 iso
Relative cytokine level, IL-1 alpha/IL-1F1 (DC differentiation assay, Soluble antibody, Luminex) [16]: 1.71 fold of hIgG4 iso
Relative cytokine level, IL-6 (DC differentiation assay, Pre-coat antibody, Luminex) [16]: 1.61 fold of hIgG4 iso
Relative cytokine level, IL-8/CXCL8 (DC differentiation assay, Soluble antibody, Luminex) [16]: 1.65 fold of hIgG4 iso
Relative cytokine level, IL-10 (DC differentiation assay, Pre-coat antibody, Luminex) [16]: 2.16 fold of hIgG4 iso
Relative cytokine level, IL-10 (DC differentiation assay, Soluble antibody, Luminex) [16]: 1.69 fold of hIgG4 iso
Relative cytokine level, TNFα (DC differentiation assay, Pre-coat antibody, Luminex) [16]: 5.38 fold of hIgG4 iso
Relative cytokine level, TNFα (DC differentiation assay, Soluble antibody, Luminex) [16]: 4.71 fold of hIgG4 iso
Relative cytokine level, VEGF (DC differentiation assay, Pre-coat antibody, Luminex) [16]: 1.67 fold of hIgG4 iso
Relative cytokine level, VEGF (DC differentiation assay, Soluble antibody, Luminex) [16]: 1.43 fold of hIgG4 iso
B3: 043c (antibody, V domains shown)
VH: QVQLQQSGAELAKPGASVKLSCKASGYTFTSYWMYWVKQRPGQGLEWIGHINPSSGYTKYNQKFKDKATLTADKSSSTAYMQLSSLTYEDSAVYYCARDPNWDNYWGQGTTLTVSS
VL: DIVMTQSHKFMSTSVGDRVSITCKASQDVSIAVAWYQQKPGQSPKLLIYSASYRYTGVPDRFTGSGSGTDFTFTISSVQAEDLAVYYCQQHYSTPYTFGGGTKLEIK
notes: Human IgG4 chimeric antibody with S228P mutation at the Fc region; also called chimeric antibody 043c; parental antibody 043c
